Usually Kd stands for the equilibrium constant for the complex coming apart.

The assay concerns the target biotinylated NeoNectin candidate 1 (NN-C1) (biotin (N-terminal biotin; enzymatic biotinylation of the Avi-tag)). Description: BLI. On the technique in general: In BLI a coated tip is dipped into the sample, and binding shifts an interference pattern.

B1: integrin αvβ8 ectodomain (complex)
chain 1: FNLDVDSPAEYSGPEGSYFGFAVDFFVPSASSRMFLLVGAPKANTTQPGIVEGGQVLKCDWSSTRRCQPIEFDATGNRDYAKDDPLEFKSHQWFGASVRSKQDKILACAPLYHWRTEMKQEREPVGTCFLQDGTKTVEYAPCRSQDIDADGQGFCQGGFSIDFTKADRVLLGGPGSFYWQGQLISDQVAEIVSKYDPNVYSIKYNNQLATRTAQAIFDDSYLGYSVAVGDFNGDGIDDFVSGVPRAARTLGMVYIYDGKNMSSLYNFTGEQMAAYFGFSVAATDINGDDYADVFIGAPLFMDRGSDGKLQEVGQVSVSLQRASGDFQTTKLNGFEVFARFGSAIAPLGDLDQDGFNDIAIAAPYGGEDKKGIVYIFNGRSTGLNAVPSQILEGQWAARSMPPSFGYSMKGATDIDKNGYPDLIVGAFGVDRAILYRARPVITVNAGLEVYPSILNQDNKTCSLPGTALKVSCFNVRFCLKADGKGVLPRKLNFQVELLLDKLKQKGAIRRALFLYSRSPSHSKNMTISRGGLMQCEELIAYLRDESEFRDKLTPITIFMEYRLDYRTAADTTGLQPILNQFTPANISRQAHILLDCGEDNVCKPKLEVSVDSDQKKIYIGDDNPLTLIVKAQNQGEGAYEAELIVSIPLQADFIGVVRNNEALARLSCAFKTENQTRQVVCDLGNPMKAGTQLLAGLRFSVHQQSEMDTSVKFDLQIQSSNLFDKVSPVVSHKVDLAVLAAVEIRGVSSPDHVFLPIPNWEHKENPETEEDVGPVVQHIYELRNNGPSSFSKAMLHLQWPYKYNNNTLLYILHYDIDGPMNCTSDMEINPLRIKISSLQTTEKNDTVAGQGERDHLITKRDLALSEGDIHTLGCGVAQCLKIVCQVGRLDRGKSAILYVKSLLWTETFMNKENQNHSYSLKSSASFNVIEFPYKNLPIEDITNSTLVTTNVTWGIQPAPMPV
chain 2: EDNRCASSNAASCARCLALGPECGWCVQEDFISGGSRSERCDIVSNLISKGCSVDSIEYPSVHVIIPTENEINTQVTPGEVSIQLRPGAEANFMLKVHPLKKYPVDLYYLVDVSASMHNNIEKLNSVGNDLSRKMAFFSRDFRLGFGSYVDKTVSPYISIHPERIHNQCSDYNLDCMPPHGYIHVLSLTENITEFEKAVHRQKISGNIDTPEGGFDAMLQAAVCESHIGWRKEAKRLLLVMTDQTSHLALDSKLAGIVVPNDGNCHLKNNVYVKSTTMEHPSLGQLSEKLIDNNINVIFAVQGKQFHWYKDLLPLLPGTIAGEIESKAANLNNLVVEAYQKLISEVKVQVENQVQGIYFNITAICPDGSRKPGMEGCRNVTSNDEVLFNVTVTMKKCDVTGGKNYAIIKPIGFNETAKIHIHRNCSCQCEDNRGPKGKCVDETFLDSKCFQCDENKCHFDEDQFSSESCKSHKDQPVCSGRGVCVCGKCSCHKIKLGKVYGKYCEKDDFSCPYHHGNLCAGHGECEAGRCQCFSGWEGDRCQCPSAAAQHCVNSKGQVCSGRGTCVCGRCECTDPRSIGRFCEHCPTCYTACKENWNCMQCLHPHNLSQAILDQCKTSCALMEQQHYVDQTSECFSSPSYLR
B1 came in with a Kd of 1 µM.

The values are drawn from paper PMC12392869 (2025).
